In patent publication US20230112035A1 (AstraZeneca / MedImmune, published 2023):
Substitutions are numbered along the chain they refer to. In names and notes the source's numbering stands. Read-outs that look alike come from different tables or passages of the source.

Experiments:
[1] = target: human αvβ8 integrin expressed on cells and in tissue (human, UniProt P06756 31-1048; P26012 43-769); assay: cell-based or functional assay
[2] = target: T1, recombinantly produced αvβ8 integrin protein (UniProt P06756 31-992; P26012 43-684)
T1 chain 1: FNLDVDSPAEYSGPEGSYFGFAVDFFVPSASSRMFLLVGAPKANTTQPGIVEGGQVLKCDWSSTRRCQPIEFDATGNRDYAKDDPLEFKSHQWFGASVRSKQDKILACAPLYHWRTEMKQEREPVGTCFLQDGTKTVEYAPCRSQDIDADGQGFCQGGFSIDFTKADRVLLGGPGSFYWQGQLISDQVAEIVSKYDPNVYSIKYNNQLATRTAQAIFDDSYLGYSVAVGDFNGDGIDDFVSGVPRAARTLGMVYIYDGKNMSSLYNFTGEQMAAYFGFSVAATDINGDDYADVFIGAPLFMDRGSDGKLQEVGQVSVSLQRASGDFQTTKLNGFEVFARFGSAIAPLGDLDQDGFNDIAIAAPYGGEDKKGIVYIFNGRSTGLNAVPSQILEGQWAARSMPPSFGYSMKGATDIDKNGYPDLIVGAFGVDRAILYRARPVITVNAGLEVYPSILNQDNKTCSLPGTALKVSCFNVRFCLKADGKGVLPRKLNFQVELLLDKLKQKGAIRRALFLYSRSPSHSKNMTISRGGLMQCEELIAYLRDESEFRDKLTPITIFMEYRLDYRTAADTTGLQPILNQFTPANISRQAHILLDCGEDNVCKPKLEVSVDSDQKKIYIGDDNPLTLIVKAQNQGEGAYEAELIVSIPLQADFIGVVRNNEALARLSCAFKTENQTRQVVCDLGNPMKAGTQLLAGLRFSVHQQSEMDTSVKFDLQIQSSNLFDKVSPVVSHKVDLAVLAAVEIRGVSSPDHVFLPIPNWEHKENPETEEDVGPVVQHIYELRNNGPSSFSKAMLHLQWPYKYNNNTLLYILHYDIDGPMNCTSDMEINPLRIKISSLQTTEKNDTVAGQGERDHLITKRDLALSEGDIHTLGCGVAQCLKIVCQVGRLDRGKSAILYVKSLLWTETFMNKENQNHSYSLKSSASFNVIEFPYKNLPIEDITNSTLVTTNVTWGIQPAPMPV
T1 chain 2: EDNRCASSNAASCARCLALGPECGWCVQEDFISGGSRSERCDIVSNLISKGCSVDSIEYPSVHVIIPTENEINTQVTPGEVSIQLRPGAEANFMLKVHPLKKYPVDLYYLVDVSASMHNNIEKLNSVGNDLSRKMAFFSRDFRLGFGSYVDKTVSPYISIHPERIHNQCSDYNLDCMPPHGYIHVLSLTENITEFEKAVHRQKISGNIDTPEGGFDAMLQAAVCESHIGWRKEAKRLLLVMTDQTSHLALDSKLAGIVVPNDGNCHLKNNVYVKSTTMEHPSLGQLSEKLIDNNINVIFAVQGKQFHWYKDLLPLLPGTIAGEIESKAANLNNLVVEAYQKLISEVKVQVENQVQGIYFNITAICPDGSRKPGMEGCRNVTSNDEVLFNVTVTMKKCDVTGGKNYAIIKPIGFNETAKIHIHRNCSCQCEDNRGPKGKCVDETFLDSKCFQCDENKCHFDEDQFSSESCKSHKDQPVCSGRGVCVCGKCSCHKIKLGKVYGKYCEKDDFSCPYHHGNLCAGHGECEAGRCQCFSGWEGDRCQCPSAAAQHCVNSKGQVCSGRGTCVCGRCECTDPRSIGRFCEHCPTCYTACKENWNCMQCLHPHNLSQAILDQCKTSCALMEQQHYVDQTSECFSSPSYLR

[3] = target: T2, recombinantly produced αvβ8 integrin protein (human, UniProt P06756 31-992; P26012 43-684); assay: ELISA screening of position 94 mutants
T2 construct: Protein coated on ELISA plates and used in Biacore; also called integrin αvβ8

[4] = target: T1, recombinantly produced αvβ8 integrin …; assay: Biacore; value is an estimate
[5] = target: T1, recombinantly produced αvβ8 integrin …; assay: Biacore

B1: B5-15 humanized and affinity optimized anti-αvβ8 integrin antibody (antibody, V domains shown)
VH: EVQLVESGGGLVQPGGSLRLSCAVSGFVFSRSWISWVRQAPGKGLEWIGEINPDSSTINYTSSLKDRFTISRDNAKNSLYLQMNSLRAEDTAVYYCAILITTEDYWGQGTTVTVSS
VL: DIQLTQSPSSLSASVGDRVTITCKASQDINKYLSWFQQKPGKAPKSLIYYANRLVDGVPSRFSGSGSGTDFTLTISSLQPEDFATYYCLQYDVFPYTFGGGTKVEIK
For B1, the “SMAD2/3 phosphorylation in kidney lysates of humanized αvβ8 transgenic mice after UUO (ELISA)” value [1] was 1.6 fold and the Kd [2] was 166 pM.

B2: MEDI-hu37E1B5-C94I mutant antibody (antibody, V domains shown)
VH: B1 VH with S32Y, I34M
VL: B1 VL with K31S, V93E
notes: IgG; also called humanized anti-αvβ8 integrin antibody C94I
In the case of B2, the “fold reduction in αvβ8 binding affinity (against MEDI-hu37E1B5 with Cys 94)” value [3] is reported as about 3 fold.

B3: hu37E1B5 anti-αvβ8 integrin antibody (UCSF humanized sequence of WO 2013/026004) (antibody, V domains shown)
VH: B1 VH with S32Y, I34M, I98S
VL: EIVLTQSPSSLSLSPGERVTITCKASQDINSYLSWYQQKPGKAPKLLIYYANRLVDGVPARFSGSGSGQDYTLTISSLEPEDFAVYYCLQYDEFPYTFGGGTKLEIK
Binder B3 has a Kd [4] of about 490000 pM.

B4: Chi-37E1B5 chimeric anti-αvβ8 integrin antibody (antibody, V domains shown)
VH: EVQLVESGGGLVQPGGSLNLSCAVSGFVFSRYWMSWVRQAPGKGLEWIGEINPDSSTINYTSSLKDKFIISRDNAKNTLYLQMNKVRSEDTALYYCACLITTEDYWGQGTSVTVSS
VL: EIVLTQSPSSMYASLGERVTIPCKASQDINSYLSWFQQKPGKSPKTLIYYANRLVDGVPSRFSGSGSGQDYSLTISSLEYEDMGIYYCLQYDEFPYTFGGGTKLEIK
B4 gave a Kd [5] of 500 pM and a Kd [2] of 500 pM.
